According to publication PMC3923129:

Biological target: sigmaA-RNAP holoenzyme (housekeeping RNA polymerase) (Bacillus subtilis) (UniProt P20429+P37870+P37871+P06224)
Assay: EMSA

Sequence of sigmaA-RNAP holoenzyme (housekeeping RNA polymerase) (Bacillus subtilis) (P20429 whole entry, chain 1 of 4): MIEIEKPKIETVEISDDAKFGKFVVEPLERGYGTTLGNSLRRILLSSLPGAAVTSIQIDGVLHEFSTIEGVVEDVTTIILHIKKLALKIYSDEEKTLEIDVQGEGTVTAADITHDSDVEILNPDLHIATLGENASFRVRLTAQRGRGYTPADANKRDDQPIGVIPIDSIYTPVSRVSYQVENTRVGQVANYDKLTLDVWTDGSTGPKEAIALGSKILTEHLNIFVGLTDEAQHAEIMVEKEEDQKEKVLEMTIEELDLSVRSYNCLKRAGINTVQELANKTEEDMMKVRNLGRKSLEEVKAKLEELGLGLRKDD
Sequence of sigmaA-RNAP holoenzyme (housekeeping RNA polymerase) (Bacillus subtilis) (P37870 whole entry, chain 2 of 4): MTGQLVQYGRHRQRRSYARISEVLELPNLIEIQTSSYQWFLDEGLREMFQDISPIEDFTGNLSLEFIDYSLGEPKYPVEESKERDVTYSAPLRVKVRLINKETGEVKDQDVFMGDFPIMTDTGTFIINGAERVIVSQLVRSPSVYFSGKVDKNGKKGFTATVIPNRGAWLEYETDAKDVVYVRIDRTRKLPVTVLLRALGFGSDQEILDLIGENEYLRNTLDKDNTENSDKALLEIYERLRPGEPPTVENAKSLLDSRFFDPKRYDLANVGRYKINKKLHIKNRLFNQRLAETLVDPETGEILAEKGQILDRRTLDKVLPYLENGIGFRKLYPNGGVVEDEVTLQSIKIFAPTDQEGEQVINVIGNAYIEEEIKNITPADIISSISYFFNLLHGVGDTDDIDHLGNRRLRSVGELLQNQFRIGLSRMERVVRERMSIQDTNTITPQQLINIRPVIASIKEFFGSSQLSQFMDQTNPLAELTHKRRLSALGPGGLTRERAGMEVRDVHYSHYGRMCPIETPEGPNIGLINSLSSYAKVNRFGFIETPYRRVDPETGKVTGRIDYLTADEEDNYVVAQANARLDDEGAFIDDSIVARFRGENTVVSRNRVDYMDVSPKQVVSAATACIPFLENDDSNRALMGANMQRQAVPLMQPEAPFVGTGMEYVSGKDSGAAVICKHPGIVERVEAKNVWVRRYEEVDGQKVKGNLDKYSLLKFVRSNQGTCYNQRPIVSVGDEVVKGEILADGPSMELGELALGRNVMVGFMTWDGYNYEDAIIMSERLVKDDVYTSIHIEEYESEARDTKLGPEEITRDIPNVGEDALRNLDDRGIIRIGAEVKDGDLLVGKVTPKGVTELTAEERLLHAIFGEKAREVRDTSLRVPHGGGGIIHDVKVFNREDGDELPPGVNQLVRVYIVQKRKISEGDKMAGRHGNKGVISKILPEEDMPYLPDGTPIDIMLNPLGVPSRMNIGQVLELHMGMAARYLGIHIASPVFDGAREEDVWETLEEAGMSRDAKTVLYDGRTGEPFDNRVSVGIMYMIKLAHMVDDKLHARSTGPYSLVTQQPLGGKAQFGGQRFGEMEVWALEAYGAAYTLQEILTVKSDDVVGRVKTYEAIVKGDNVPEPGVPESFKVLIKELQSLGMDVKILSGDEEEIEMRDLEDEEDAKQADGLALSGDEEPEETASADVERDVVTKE
Sequence of sigmaA-RNAP holoenzyme (housekeeping RNA polymerase) (Bacillus subtilis) (P37871 whole entry, chain 3 of 4): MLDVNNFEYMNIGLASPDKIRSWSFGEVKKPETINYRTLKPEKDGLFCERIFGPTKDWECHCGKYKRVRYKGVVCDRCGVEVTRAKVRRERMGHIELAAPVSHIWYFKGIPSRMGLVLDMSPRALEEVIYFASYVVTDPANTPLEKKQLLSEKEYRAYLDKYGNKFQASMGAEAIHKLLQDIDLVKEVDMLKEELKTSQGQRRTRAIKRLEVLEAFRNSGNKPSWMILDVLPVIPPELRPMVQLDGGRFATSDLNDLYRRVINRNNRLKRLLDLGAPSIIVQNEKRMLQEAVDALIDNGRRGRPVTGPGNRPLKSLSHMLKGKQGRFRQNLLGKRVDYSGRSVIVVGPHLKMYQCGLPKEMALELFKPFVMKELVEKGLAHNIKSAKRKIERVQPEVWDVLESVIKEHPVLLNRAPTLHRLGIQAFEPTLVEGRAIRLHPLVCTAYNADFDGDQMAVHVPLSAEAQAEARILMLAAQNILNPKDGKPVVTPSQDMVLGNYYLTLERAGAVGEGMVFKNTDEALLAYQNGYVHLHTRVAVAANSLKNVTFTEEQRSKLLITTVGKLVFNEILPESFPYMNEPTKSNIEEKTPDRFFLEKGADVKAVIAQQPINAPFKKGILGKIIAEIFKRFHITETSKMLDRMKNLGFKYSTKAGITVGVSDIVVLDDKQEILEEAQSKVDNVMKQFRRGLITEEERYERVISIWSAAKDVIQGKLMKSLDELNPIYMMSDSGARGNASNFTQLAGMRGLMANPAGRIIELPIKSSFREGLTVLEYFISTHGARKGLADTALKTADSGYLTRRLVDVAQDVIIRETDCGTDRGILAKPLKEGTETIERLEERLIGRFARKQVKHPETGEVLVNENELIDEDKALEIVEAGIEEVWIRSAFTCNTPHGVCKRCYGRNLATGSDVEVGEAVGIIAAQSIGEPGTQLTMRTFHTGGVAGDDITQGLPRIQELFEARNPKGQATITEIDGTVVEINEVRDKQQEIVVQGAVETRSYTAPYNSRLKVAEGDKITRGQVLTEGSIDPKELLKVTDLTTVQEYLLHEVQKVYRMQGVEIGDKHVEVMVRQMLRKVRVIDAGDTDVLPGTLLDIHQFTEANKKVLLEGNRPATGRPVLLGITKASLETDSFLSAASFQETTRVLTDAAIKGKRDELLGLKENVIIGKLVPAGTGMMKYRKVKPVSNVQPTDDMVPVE
Sequence of sigmaA-RNAP holoenzyme (housekeeping RNA polymerase) (Bacillus subtilis) (P06224 whole entry, chain 4 of 4): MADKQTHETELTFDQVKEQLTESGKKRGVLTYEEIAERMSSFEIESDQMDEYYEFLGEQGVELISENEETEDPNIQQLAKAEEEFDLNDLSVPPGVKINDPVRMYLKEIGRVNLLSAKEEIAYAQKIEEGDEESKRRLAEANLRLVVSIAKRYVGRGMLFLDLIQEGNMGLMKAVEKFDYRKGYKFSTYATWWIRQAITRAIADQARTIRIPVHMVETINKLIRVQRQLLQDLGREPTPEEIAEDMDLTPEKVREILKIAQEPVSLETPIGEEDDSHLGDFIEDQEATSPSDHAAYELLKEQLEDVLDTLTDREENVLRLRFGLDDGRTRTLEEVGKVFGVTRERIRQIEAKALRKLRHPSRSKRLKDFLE

| Substance | Kd |
| --- | --- |
| 6S-1 RNA | 100 nM |
| 6S-2 RNA | 135 nM |
